Source: US20210269499A1, “HEPATITIS B AND/OR HEPATITIS D-PERMISSIVE CELLS AND ANIMALS” (TECHNISCHE UNIVERSITAET MUENCHEN, priority 2018, published 2021)

B1: hNTCP: human NTCP receptor (SEQ ID NO: 4) (protein, listed as Homo sapiens)
chain: MEAHNASAPFNFTLPPNFGKRPTDLALSVILVFMLFFIMLSLGCTMEFSKIKAHLWKPKGLAIALVAQYGIMPLTAFVLGKVFRLKNIEALAILVCGCSPGGNLSNVFSLAMKGDMNLSIVMTTCSTFCALGMMPLLLYIYSRGIYDGDLKDKVPYKGIVISLVLVLIPCTIGIVLKSKRPQYMRYVIKGGMIIILLCSVAVTVLSAINVGKSIMFAMTPLLIATSSLMPFIGFLLGYVLSALFCLNGRCRRTVSMETGCQNVQLCSTILNVAFPPEVIGPLFFFPLLYMIFQLGEGLLLIAIFWCYEKFKTPKDKTKMIYTAATTEETIPGALGNGTYKGEDCSP

Key:
porcine NTCP = assay: Guide RNA efficiency to cause Indel mutations in porcine kidney fibroblasts (CRISPR/Cas9); format: cell-based; conditions: modified PX330 plasmid
Method: Here, porcine kidney fibroblasts were transfected with a modified PX330 plasmid, carrying an additional Puromycin selection cassette, porcine NTCP guide RNA sequence and Cas9 nuclease. Several guide RNA sequences (18 bp long) were tested for their efficiency to cause Insertion/Deletion (Indel) mutations.

HBV [1] = assay: qPCR of HBV rcDNA and cccDNA in PPH; format: cell-based, Hepatitis B virus; conditions: day 5 after infection, FIG. 3
Method: (§1) Primary porcine hepatocytes (PPH) were isolated from a pig liver less than 3 h after slaughter and kept in culture: For infection experiments, the cells were seeded in a 24 well plate and for Southern Blot experiments into 6 well plates. The next day, the cells were transduced with adenovirus at an MOI of 1 or 5 (see FIG. 2) and cultured in DMEM-F12 comprising […]. The sequences of the adenoviruses are shown in SEQ ID NO: 6 for Ad-hNTCP, SEQ ID NO: 7 for Ad-phNTCP and SEQ ID NO: 8 for Ad-hNTCP-tdTomato.
(§2) On day 4 after isolation (day 3 after transduction), the cells were infected with HBV (genotype D, serotype ayw) in DMEM-F12 with 4% PEG6000 with an MOI of 1000.
On day 5 after infection, the 24 well plates were lysed, frozen and then DNA was isolated and analyzed for rcDNA or cccDNA using qPCR. In detail, total cellular DNA was extracted using NucleoSpin Tissue kit (Macherey Nagel). For selective cccDNA PCR, isolated DNA was treated with 5 units of T5 exonuclease (NEB, Frankfurt, Germany) for 30 min in 10 μl reaction volume (Xia 2017b) followed by heat-inactivation at 95° C. for 5 min and 4-fold dilution with distilled water. Two different primer sets were used to detect total intracellular HBV DNA (HBV1844F: 5′-[…]-3′ (SEQ ID NO: 9) and HBV1745R: 5′-GGAGGGATACATAG (SEQ ID NO: 10).

HBV [2] = assay: HBV infection of HepG2 cells transfected with NTCP variants, HBeAg ELISA of supernatant; format: cell-based, Hepatitis B virus; conditions: HepG2 transfected with NTCP plasmid, HBV MOI 300, days 4, 7 and 10 after infection, FIG. 5A
Method: However, neither of these approaches was successful with porcine NTCP. […] Therefore, these human cells are a valuable tool to analyze the effect of different NTCP muteins in a human cell culture system.
HepG2 cells were transfected with plasmids coding for different variants of NTCP: human (hNTCP), porcine (pNTCP) or chimeric (pNTCP w/ hAA). After transfection, the cells were incubated for three days with 2% DMSO before they were infected with HBV at an MOI of 300. The supernatant was collected at days 4, 7 and 10 after infection and analyzed for the viral protein HBeAg by ELISA.

HBV [3] = assay: Southern Blot analysis of HBV cccDNA in PPH; format: cell-based, Hepatitis B virus; conditions: day 4 after infection with HBV, FIG. 4
Method: as §1, §2
On days 3 and 5 after HBV infection, samples were taken for HBeAg measurements. Medium was changed on day 3 after HBV infection. The 6 well plate for the Southern Blot analysis was frozen at −80° C. on day 4 after HBV infection and used for a Hirt extraction with subsequent Southern Blot. To detect protein-free forms of HBV DNA including cccDNA, a modified Hirt extraction procedure was used (Yan et al. 2012). Intracellular capsid-associated DNA was prepared as described (Ko et al. 2014). Viral DNA forms were separated on an agarose gel, transferred onto a nylon membrane, and hybridized with a digoxigenin-labeled HBV-specific probe (Ko et al. 2014). DNA signal was detected by DIG Luminescent Detection Kit (Roche).

| Molecule | Indel frequency (porcine NTCP) | HBV cccDNA in PPH (HBV [1]) | HBV rcDNA in PPH (HBV [1]) | susceptibility of HepG2 cells to HBV (HBeAg in supernatant) (HBV [2]) | HBV cccDNA in Southern Blot (HBV [3]) |
| --- | --- | --- | --- | --- | --- |
| NTCP G3: guide RNA sequence GAAGGACAAGGTGCCCTA (SEQ ID NO: 22) (expressed or natural sequence) | highest | – | – | – | – |
| B1 | – | drastic increase | drastic increase | susceptible to HBV | show HBV cccDNA |
